Entries after “also recorded” stand apart in the source; their conditions may differ.
T1: human B7-H4 (Homo sapiens, UniProt Q7Z7D3)
T1 construct: Human B7H4 ECD; FlagHis10 or FcHis6 (either; equivalent data); made in house
T1 sequence (Q7Z7D3 25-259 limits assumed): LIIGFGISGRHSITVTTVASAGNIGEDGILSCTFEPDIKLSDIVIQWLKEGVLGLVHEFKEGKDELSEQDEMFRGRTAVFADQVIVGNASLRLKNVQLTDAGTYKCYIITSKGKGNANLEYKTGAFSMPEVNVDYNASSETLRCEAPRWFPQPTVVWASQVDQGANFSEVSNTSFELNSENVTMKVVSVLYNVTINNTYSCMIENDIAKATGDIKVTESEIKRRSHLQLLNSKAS

T2: immobilized recombinant human B7-H4 (Homo sapiens, UniProt Q7Z7D3)
T2 sequence (Q7Z7D3 25-282): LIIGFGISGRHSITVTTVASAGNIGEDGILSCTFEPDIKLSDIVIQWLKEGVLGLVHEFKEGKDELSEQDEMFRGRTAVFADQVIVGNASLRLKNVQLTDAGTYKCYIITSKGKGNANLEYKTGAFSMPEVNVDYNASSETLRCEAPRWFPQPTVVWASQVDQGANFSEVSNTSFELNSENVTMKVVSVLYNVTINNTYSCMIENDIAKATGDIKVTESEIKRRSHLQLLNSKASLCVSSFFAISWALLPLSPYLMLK

B1: E02-GL-SG3249: clone E02-GL (Maia heavy chain backbone) conjugated to the PBD cytotoxin SG3249 (conjugate)
heavy: QVQLQQWGAGLLKPSETLSLACTVYGGSFSGYYWNWIRQPPGKGLEWIGEINHSGSTSYNPSLKSRVTISVDTSKNQFSLKLSSVTAADTAVYYCARVLYNWNVDSWGQGTLVTVSSASTKGPSVFPLAPSSKSTSGGTAALGCLVKDYFPEPVTVSWNSGALTSGVHTFPAVLQSSGLYSLSSVVTVPSSSLGTQTYICNVNHKPSNTKVDKRVEPKSCDKTHTCPPCPAPELLGGPSCVFLFPPKPKDTLMISRTPEVTCVVVDVSHEDPEVKFNWYVDGVEVHNAKTKPREEQYNSTYRVVSVLTVLHQDWLNGKEYKCKVSNKALPAPIEKTISKAKGQPREPQVYTLPPSREEMTKNQVSLTCLVKGFYPSDIAVEWESNGQPENNYKTTPPVLDSDGSFFLYSKLTVDKSRWQQGNVFSCSVMHEALHNHYTQKSLSLSPGK
light: DIQMTQSPSSLSASVGDRVTITCRASQDIRNDVGWYQQKPGKAPKRLIYAASRLQSGVPSRFSGSGSGTEFTLTISSLQPEDFATYYCLQHNSYPRTFGQGTKVEIKRTVAAPSVFIFPPSDEQLKSGTASVVCLLNNFYPREAKVQWKVDNALQSGNSQESVTEQDSKDSTYSLSSTLTLSKADYEKHKVYACEVTHQGLSSPVTKSFNRGEC
B2: E02-GL: germlined ZY0EQD-E02, VH SEQ ID NO: 45, VL SEQ ID NO: 34; antibody intermediate of E02-GL-SG3932 (antibody, V domains shown)
VH: QVQLQQWGAGLLKPSETLSLACTVYGGSFSGYYWNWIRQPPGKGLEWIGEINHSGSTSYNPSLKSRVTISVDTSKNQFSLKLSSVTAADTAVYYCARVLYNWNVDSWGQGTLVTVSS
VL: DIQMTQSPSSLSASVGDRVTITCRASQDIRNDVGWYQQKPGKAPKRLIYAASRLQSGVPSRFSGSGSGTEFTLTISSLQPEDFATYYCLQHNSYPRTFGQGTKVEIK

Tests used:
[1] = test system: non-transfected HEK293 cells; test: In vitro cytotoxicity; format: cell-based
Excerpt: The clone E02-GL was conjugated to the cytotoxin SG3249 (providing E02-GL-SG3249), and tested for the ability to target and kill both cynomolgus B7-H4 transfected and non-transfected B7-H4 cells. For convenience, the antibody tested in this example comprised the Maia heavy chain backbone (e.g. having a cysteine insertion providing an additional site to which SG3249 can conjugate, see SEQ ID NO: 48) was used. No loss of efficacy occurs where other heavy chain backbones (e.g. lacking such cysteine insertion, for example see SEQ ID NO: 52) is used. The antibody R347 conjugated to SG3249 was used as a control.

CTG-012 = test: PDX model; format: in vivo; conditions: CTG-012, Breast (Triple negative); 0.3 mg/kg vs vehicle
Excerpt: (§1) Patient derived xenograft models were generated using cancer cell lines with varying levels of B7-H4 expression, as outlined in Table 16. […] “E02-GL” antibody has the CDR/VH sequences (e.g. corresponds to) of ZY0EQD-E02 (“GL” means the antibody has been germlined).

CTG-1086 = test: PDX model; format: in vivo; conditions: CTG-1086, Ovarian; 0.3 mg/kg vs vehicle
Excerpt: as §1

HBCx-9 = test: PDX model; format: in vivo; conditions: HBCx-9, Breast (Triple negative); 0.3 mg/kg vs vehicle
Excerpt: as §1

human B7-H4 = target: T1, human B7-H4; test: ELISA comparison with 1D11; format: binding; conditions: E02-GL compared with 1D11
Procedure: The binding of the anti-B7-H4 antibodies (e.g. intermediate ZY0EQD-E02-GL and anti-B7-H4 mAB D11) to B7-H4 (e.g. human and mouse B7-H4) was measured by ELISA. Recombinant B7-H4-Fc (e.g. Human B7-H4-Fc and mouse B7-H4-Fc) proteins were diluted into DPBS to give 5 ug/ml solution. 50 μL of the diluted stocks was then added Nunc Maxisorp 96 well plates. 50 μL/well DPBS was added to control wells. The antigens were allowed to adsorb to the plates overnight at 4° C., washed once with DPBS and incubated with blocking buffer (3% w/v Marvel in DPBS) at room temperature for 1 hour. The plates were then washed once with PBS and incubated for 1 hour with 6.4 pM-100 nM anti-B7-H4 antibody (e.g. intermediate ZY0EQD-E02-GL or anti-B7-H4 mAb D11) diluted in DPBS containing 1% BSA, 0.3% Triton X-100. The plates were then washed three times with PBS containing 0.1% Tween and incubated with peroxidase-conjugated goat anti-human light chain antibody (Sigma Aldrich, Poole, UK) for 1 hour at room temperature. The plates were then washed five times with PBS containing 0.1% Tween. Following a 5-minute incubation with TMB peroxidase substrate, the reaction was stopped by the addition of 0.5 M H2SO4. Absorbance at 450 nm (A450) was measured using an Envision multilabel plate reader (Perkin Elmer, Seer Green, UK). […]

[2] = test system: live cells (B7-H4 on membrane); test: Internalisation kinetics in live cells (AF647 label); format: cell-based; conditions: AF647 conjugate; co-visualisation with Lamp1-AF488
Procedure: E02-GL conjugated to fluorescence marker AF647 was used to treat live cells. At 0 mins following treatment, clusters of fluorescence were noted on the cell membranes (indicative of binding to B7-H4 present on the membrane).

HT29 = test: E02-GL MESF on cell line; format: cell-based, human; conditions: HT29, B7-H4 negative
HEK293 JI parental = test: E02-GL MESF on cell line; format: cell-based; conditions: B7-H4 negative
HEK 293 JI hB7H4 pool = test: E02-GL MESF on cell line; format: cell-based; conditions: has some negative cells in pool
HCC1569 = test: E02-GL MESF on cell line; format: cell-based
[3] = target: T2, immobilized recombinant human B7-H4; test: DELFIA-ELISA; format: binding
Procedure: To assess whether conjugation of the topoisomerase 1 linker-warhead affected binding properties of the E02-INT antibody, the binding affinity of E02-INT and E02-GL-SG3932 were measured using a DELFIA-ELISA method and an SPR method. […] The kinetic rate constants (kon and koff) and equilibrium dissociation constants (KD) of E02-INT and E02-GL-SG3932 for human B7-H4 antigen was also determined by SPR, using an antibody capture method.

HT29-huB7-H4 Clone 26 = test: Live cell imaging internalization; format: cell-based, human; conditions: 5 μg/mL Alexa Fluor 568 conjugate
Procedure: (§2) The internalization and intracellular trafficking properties of antibody E02-INT was evaluated using a quantitative live cell imaging assay in MX-1 human breast cancer cells and HT29 huB7-H4 Clone 26 human colon cancer cells overexpressing B7-H4.

MX-1 = test: Live cell imaging internalization; format: cell-based, human; conditions: 5 μg/mL Alexa Fluor 568 conjugate
Procedure: as §2

Row | Molecule | cell killing [1] | % Tumour Growth Inhibition (TGI) (CTG-012) | % Tumour Growth Inhibition (TGI) (CTG-1086) | % Tumour Growth Inhibition (TGI) (HBCx-9) | binding (affinity) to human B7-H4 by ELISA (human B7-H4) | internalisation of bound antibody [2] | E02-GL MESF (HT29) | E02-GL MESF (HEK293 JI parental) | E02-GL MESF (HEK 293 JI hB7H4 pool) | E02-GL MESF (HCC1569) | EC50 [3] | internalization half-life (HT29-huB7-H4 Clone 26) | internalization half-life (MX-1)
1 | B1 | No significant killing | 90% | 20% | 70% | – | – | – | – | – | – | – | – | –
2 | B2 | – | – | – | – | significantly better binding; also recorded: significantly stronger binding | internalised by endocytosis | 2,101 MESF | 3,266 MESF | 2,481,266 MESF | 112,608 MESF | 1.98 nM | 127 (±35 SD) minutes | 102 (±18 SD) minutes
